US20230095004 (Aptitude Medical Systems, Inc., published 2023)

T1: VEGF-165 (VEGF-A) (Homo sapiens)
T1 chain: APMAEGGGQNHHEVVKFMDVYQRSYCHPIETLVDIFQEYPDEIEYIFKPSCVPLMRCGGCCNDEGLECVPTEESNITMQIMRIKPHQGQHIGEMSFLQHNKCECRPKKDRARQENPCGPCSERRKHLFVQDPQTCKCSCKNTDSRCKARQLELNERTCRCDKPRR


Tests used:
Angiopoietin-2 (Ang2) = Angiopoietin-2 (Ang2) (Homo sapiens, UniProt O15123 O15123:19-496); assay: flow; settings: tags: His tag; R&D Systems 623-AN
VEGF-165 (VEGF-A) [1] = target: T1, VEGF-165 (VEGF-A); assay: flow; settings: tags: recombinant; chain copies: 2
VEGF-165 (VEGF-A) [2] = target: T1, VEGF-165 (VEGF-A); assay: flow; PBSMCT, 37 C; settings: tags: recombinant; chain copies: 2; label: biotin
VEGF-121 (VEGF-A) = VEGF-121 (VEGF-A) (Homo sapiens, UniProt P15692 SEQ:1-121); assay: flow; PBSMCT, 37 C; settings: tags: recombinant; chain copies: 2; label: biotin

Angiopoietin-2 (Ang2), sequence (O15123 19-496, one chain of several): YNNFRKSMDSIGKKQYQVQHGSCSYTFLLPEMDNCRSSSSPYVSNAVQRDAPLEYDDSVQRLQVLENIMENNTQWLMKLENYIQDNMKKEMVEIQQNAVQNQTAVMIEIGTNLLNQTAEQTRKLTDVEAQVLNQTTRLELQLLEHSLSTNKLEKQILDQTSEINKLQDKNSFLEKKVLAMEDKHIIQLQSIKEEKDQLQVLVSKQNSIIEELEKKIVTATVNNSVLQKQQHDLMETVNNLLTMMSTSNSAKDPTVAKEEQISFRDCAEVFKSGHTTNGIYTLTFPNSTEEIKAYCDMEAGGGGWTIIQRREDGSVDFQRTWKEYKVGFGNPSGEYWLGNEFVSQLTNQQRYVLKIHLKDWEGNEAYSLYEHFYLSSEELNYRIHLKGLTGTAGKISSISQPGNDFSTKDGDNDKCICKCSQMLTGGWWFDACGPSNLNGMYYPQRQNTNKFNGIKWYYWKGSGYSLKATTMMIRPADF

Binder	Kd (Angiopoietin-2 (Ang2)) [pM]	Kd (VEGF-165 (VEGF-A) [1]) [pM]	Kd (VEGF-165 (VEGF-A) [2]) [pM]	Kd (VEGF-121 (VEGF-A)) [pM]
AMSB107.2 (ssRNA, 2'-F all nucleotides) RNA: UGCCAGUGAGUCGGAUCUCCACAGUAGAUAAGCCAACAAACGUACAUUCUCUGUUAGUAUUUUCCUGUG	820	12900	–	–
AMSB107.7 (ssRNA, 2'-F all nucleotides) RNA: UGCAUGCACAGUGAGUCGGAUCUCCGCAUAGAUAAGCCAACAAACGUACAUUCUCUGUUAGUAUUUUCUGCG	85	–	–	–
AMSB107.5 (ssRNA, 2'-F all nucleotides) RNA: AUGCAUGCAUUUUUACCAGUGAGUCGGAUCUCCGCAUAGAUAAGCCAACAAACGUACAUUCUCUGUUAGUAUUUUCUGCG	96	52	–	–
AMSB107.15 (ssRNA, 2'-F all nucleotides) RNA: UGCAUCUGCAUUUUACCAGUGAGUCGGAUCUCCGCAUAGAUAAGCCAACAAACGUACAUUCUCUGUUAGUAUUUUCUGCG	778	765	–	–
AMSB107.17 (ssRNA, 2'-F all nucleotides) RNA: GCUGUACAGCUUUUACCAGUGAGUCGGAUCUCCGCAUAGAUAAGCCAACAAACGUACAUUCUCUGUUAGUAUUUUCUGCG	86	198	–	–
AMSB107.10 (ssRNA, 2'-F all nucleotides) RNA: UGCAUGCAUUUUUUACCAGUGAGUCGGAUCUCCGCAUAGAUAAGCCAACAAACGUACAUUCUCUGUUAGUAUUUUCUGCG	89	51	–	–
AMSB107.13 (ssRNA, 2'-F all nucleotides) RNA: CCGGUACCGGUUUUACCAGUGAGUCGGAUCUCCGCAUAGAUAAGCCAACAAACGUACAUUCUCUGUUAGUAUUUUCUGCG	89	50	–	–
AMSB108.0 (ssRNA, 2'-F all nucleotides) RNA: CGCAUAGAUAAGCCAACAAACGUACAUUCUCUGUUAGUAUUUUCUGCGUGCCAGUGAGUCGGAUCUCCACAGUUCUCUGUG	520	15700	–	–
AMSB107.0 (ssRNA, 2'-F all nucleotides) RNA: ACCCUUGCUUGCGUAGCAUUUUACCAGUGAGUCGGAUCUCCGCAUAGAUAAGCCAACAAACGUACAUUCUCUGUUAGUAUUUUCUGCG	222	1290	–	–
AMSB107 (ssRNA, 2'-F all nucleotides) RNA: UGCAUGCAUUUUACCAGUGAGUCGGAUCUCCGCAUAGAUAAGCCAACAAACGUACAUUCUCUGUUAGUAUUUUCUGCG	87	54	–	–
AMSB107.21 (ssRNA, 2'-F; 2'-OMe in stem nucleotides (5' UGCAUGCA, internal CGCA, 3' UGCG)) RNA: UGCAUGCAUUUUACCAGUGAGUCGGAUCUCCGCAUAGAUAAGCCAACAAACGUACAUUCUCUGUUAGUAUUUUCUGCG	83	52	–	–
AMSB107.18 (ssRNA, 2'-F; LNA at selected positions of the VEGF consensus as printed) RNA: UGCAUGCAUUUUACCAGUGAGUCGGAUCUCCGCAUAGAUAAGCCAACAAACGUACAUUCUCUGUUAGUAUUUUCUGCG	79	608	–	–
AMSB107.12 (ssRNA, 2'-F all nucleotides) RNA: CUGUACAGUUUUACCAGUGAGUCGGAUCUCCGCAUAGAUAAGCCAACAAACGUACAUUCUCUGUUAGUAUUUUCUGCG	227	606	–	–
AMSB107.20 (ssRNA, 2'-F; LNA in stem nucleotides as printed) RNA: UGCAUGCAUUUUACCAGUGAGUCGGAUCUCCGCAUAGAUAAGCCAACAAACGUACAUUCUCUGUUAGUAUUUUCUGCG	253	234	–	–
AMSB107.19 (ssRNA, 2'-F; LNA at selected positions of the VEGF consensus as printed) RNA: UGCAUGCAUUUUACCAGUGAGUCGGAUCUCCGCAUAGAUAAGCCAACAAACGUACAUUCUCUGUUAGUAUUUUCUGCG	83	–	–	–
UUUUGCAUGCAUUUUACCAGUGAGUCGGAUCUCCGCAUAUCUGCG (ssRNA, 2'-F all nucleotides) [AMS0433.20]	–	–	39	45
AMSB107.4 (ssRNA, 2'-F all nucleotides) RNA: GCAUGCUUUUACCAGUGAGUCGGAUCUCCGCAUAGAUAAGCCAACAAACGUACAUUCUCUGUUAGUAUUUUCUGCG	237	225	–	–
AMSB107.9 (ssRNA, 2'-F all nucleotides) RNA: UGCAUGCAUUACCAGUGAGUCGGAUCUCCGCAUAGAUAAGCCAACAAACGUACAUUCUCUGUUAGUAUUUUCUGCG	150	151	–	–
AMS0433.5 (ssRNA, 2'-F all nucleotides) RNA: CACCAUGCUUGCGUAGCAUCAUCCAGUGAGUCGGAUCUCCGCAUAUCUGCG	–	–	739	1190
AMSB107.14 (ssRNA, 2'-F all nucleotides) RNA: UGCACUGCAUUUUACCAGUGAGUCGGAUCUCCGCAUAGAUAAGCCAACAAACGUACAUUCUCUGUUAGUAUUUUCUGCG	928	643	–	–
UGCCAGUGAGUCGGAUCUCCUGUGAGAACACAG (ssRNA, 2'-F all nucleotides) [AMS0433.10]	–	–	8470	11400
